According to the Human Domainome abundance scans (Beltran et al. 2025):

B1: Mineralocorticoid receptor, residues 600 to 675; numbered along this chain, P08235 (parent)
chain: SKICLVCGDEASGCHYGVVTCGSCKVFFKRAVEGQHNYLCAGRNDCIIDKIRRKNCPACRLQKCLQAGMNLGARKS

Variants of: B1
Assay: abundance fitness (aPCA) (normalised: wild type 0, dead -1); higher = more abundant; growth selection in yeast, the domain comes from the species named
Settings: Homo sapiens

Abundance fitness of substitutions, site by site:
Y38: N -0.098, A -0.027, L -0.054, P -0.038, S -0.049, I -0.069, V 0.012, G -0.164, D -0.041, Q -0.118, R -0.088, C -0.153, H -0.059, F -0.027, M -0.117, W -0.047, K -0.026, T -0.051
R43: H -0.029, W -0.067, S -0.001, P -0.138, I -0.025, L -0.055, V -0.038, N -0.015, D -0.024, G -0.006, E 0.005, T -0.001, M 0.008, K 0.029, F -0.045, Q -0.067
G34: Q -0.043, K -0.104, E -0.013, T -0.064, H -0.078, N 0.042, I -0.103, A -0.099, C -0.151, V -0.102, S -0.074, M -0.098, F 0.071, L -0.131, W -0.165, R 0.032
E33: Q -0.039, H -0.077, G 0.062, C -0.107, F -0.137, N -0.089, L -0.109, W -0.099, D -0.043, S 0.008, T -0.051, P -0.128, I -0.124, K 0.044, M -0.049, A -0.28, Y -0.088, V -0.01
F27: H -0.427, G -0.827, W -0.223, K -0.924, Q -0.847, L -0.65, I -0.608, E -0.961, V -0.591, R -1.15, C -0.801, D -0.676, T -0.638, A -0.434, M -0.861, P -0.761, Y -0.33
K25: S -0.033, N 0.084, H -0.128, R -0.051, V -0.035, I -0.069, M -0.018, Q -0.006, W -0.083, T -0.105, P -0.058, G -0.051
N44: H -0.045, F -0.075, A -0.016, E -0.042, V -0.246, K 0.016, Y -0.049, D 0.071, I -0.342, M -0.081, T -0.054, S -0.02, W -0.089, L -0.16, Q -0.038, P -0.391, G -0.004
Q35: R -0.002, G -0.023, H -0.022, N -0.058, F -0.129, I -0.015, T -0.077, M -0.121, K 0.011, P -0.013, S -0.028, V -0.079, Y -0.112, C -0.073, D 0.056, E 0.069, L -0.094, A -0.058, W -0.205
D45: M -0.057, Q 0.016, F -0.163, A -0.067, P -0.149, W -0.249, S -0.092, E 0.015, T -0.104, K -0.072, R -0.024, V -0.074, L -0.094, N -0.045, G -0.079, Y -0.159, I -0.1
K29: F -0.167, N -0.109, E -0.105, A 0.016, G -0.048, W -0.085, Q -0.003, R -0.021, P -0.076, V -0.095, M -0.04, L -0.072, H -0.002, S -0.04, T -0.012, D 0.007, C -0.142
